Molecular target: Oregon-Green-labelled actin monomers (OG-actin) (UniProt P68135)
Test: stopped-flow fluorescence kinetics

- kon: 1.2e+07 to 1.8e+07 M⁻¹ s⁻¹
Substance: EVH2 domain of human VASP (hEVH2) (domain or fragment)
